In patent US20090280132A1:

Target: Fc receptor (FcR) on antigen presenting cells
Assay: cell-based or functional assay

Substance: Ig-W (from UniProt P01867 1-335) (antibody)
- inhibition of IL-2 production in Ig-PLP1 mediated activation of 4E3 T cells: 50%
